Entries after “also recorded” stand apart in the source; their conditions may differ.
Key:
EGFR (Tyr845) = biological target: T1, EGFR (Tyr845) (Homo sapiens, UniProt P00533); experiment: EGFR phosphorylation (antibody array, Western blotting); assay type: cell-based; conditions: MSCs treated with the substance (EpEX 3 μg/mL)
T1 construct: host or cells: human primary bone marrow mesenchymal stem cells (BMMSCs)
Method: Phospho-EGFR (Tyr845) was detected by Western blotting. […] After treatment, cell cycle progression was investigated by flow cytometry with PI staining. Fraction of cells in each phase (G1, S, G2/M) of the cell cycle was evaluated. Cells that expressed EGFR shRNA or shLuc were treated with EpEX for 18 h. After treatment, cell cycle progression was investigated by flow cytometry with PI staining. Fraction of cells in each phase (G1, S, G2/M) of the cell cycle was evaluated. […] The protein expression of cell cycle regulators (cyclin D1, cyclin D2, cyclin E1) and pluripotency factors (Oct4, Sox2, c-Myc, Lin28) was examined by Western blotting. MSCs expressing EGFR shRNA were stimulated by EpEX. After treatment, the protein expression of cell cycle regulators (cyclin D1, cyclin E1, CDK4 and CDK9) and pluripotency factors (Oct4, in Sox2, c-Myc, and Lin 28) was examined by Western blotting. […] After treatment, the gene expression of pluripotency factors (Oct4, Sox2, c-Myc, Lin28 and EpCAM) was examined by qPCR.
The phosphorylation of EGFR (Tyr845) and STAT3 (Tyr705) were examined by Western blotting with specific antibodies.
Western blotting was performed as previously described (Takahashi et al., 2003). Cells were lysed in lysis buffer (150 mM NaCl, 50 mM Tris-HCl (pH 7.4), 1% Nonidet P-40), containing a protease inhibitor mix (Roche Applied Science). Nuclear fractions and cytoplasmic fractions were separated by the Nuclear/Cytosol Fractionation Kit according to the manufacturer's instructions (BioVision Inc., Milpitas, CA, USA). Protein samples were separated by SDS-PAGE under denaturing conditions, and transferred to a PVDF membrane (Millipore). To probe for pluripotency markers, membranes were incubated with the indicated antibodies against Oct4 (1:1000, Abcam, Cambridge, UK), Nanog (1:1000, Genetex), Lin28 (1:1000, Genetex) or Sox2 (1:1000, Genetex). The CDK and cyclin antibodies were from the CDK and Cyclin Antibody Sampler Kits (Cell Signalling Technology, #9868 and #9869 respectively), including antibodies against cylin D1, D2, E1, and CDK4, CDK9 (1:1000). […]

[1] = test system: HMGA2 binding to the promoters of Oct4 and Sox2; experiment: ChIP of HMGA2 binding to promoters of pluripotency genes; assay type: cell-based, human; conditions: EpEX treatment, data not shown
Method: MSCs were treated with EpEX (3 μg/mL), and the expression of HMGA2 was detected by immunofluorescence staining. […] To detect the binding of HMGA2 to Oct4 promoters, cross-linked DNA was isolated and then amplified with specific primers by qPCR. […] The gene expression of HMGA2 is detected by qPCR. MSCs were treated with let-7 mimetic and then treated with EpEX (3 μg/mL) for 12 h. The protein abundance of HMGA2 was examined by Western blotting.
We performed chromatin immunoprecipitation (ChIP) with the Pierce™ Magnetic ChIP Kit (Thermo Fisher Scientific), to according the manufacturer's instructions. In brief, the protein-DNA complexes were cross-linked with 1% formaldehyde and quenched by adding glycine to a final concentration of 200 mM. The chromatin complexes were sonicated to an average size of 250 bp by a MISONIX Sonicator 3000. For immunoprecipitation, 4 μg of […] (Novus) was incubated with protein G beads (Invitrogen) for 4 h. The immunocomplexes were further incubated with chromatin for another 4 h. […]
The immunoprecipitated DNA was recovered by a PCR purification kit (Thermo Fisher Scientific), and the purified DNA was subjected to real time quantitative PCR for further analysis. Immunoprecipitation/input was calculated for each gene and each gene was further normalized to the level of mouse β-actin promoter. […]

MSCs = experiment: Osteogenesis of MSCs by Alizarin Red S staining; assay type: cell-based, human
Method: Calcium precipitation was measured by Alizarin Red S (ARS) staining to probe the efficiency of osteogenesis. […] Quantification of osteogenesis, as measured by ARS staining, is shown for each group. MSCs were induced by osteogenetic medium and treated with EpEX at indicated doses. The gene expression of RUNX2 was examined by qPCR. […] ARS staining was performed to check the efficiency of osteogenesis. MSCs were pretreated with let-7 inhibitor and then treated with EpEX for 14 days during osteo-induction. ARS staining was performed to check the efficiency of osteogenesis. […] RUNX2 gene expression was measured by qPCR. MSCs were pretreated with let-7 inhibitor and induced by EpEX. RUNX2 gene expression was examined by qPCR. […] Upon EpEX stimulation, phosphorylation of EGFR-STAT3 signaling is induced and subsequently upregulates the level of Lin28 which inhibits let-7. When let-7 is inhibited, the transcription factor, HMGA2, is increased and binds to the promoters of Oct4 and Sox2. The EpEX-mediated increases of Oct4 and Sox2 can promote osteogenesis of MSCs during osteo-induction. […]
After 14 days of osteogenic differentiation, cells were fixed with ice-cold 70% ethanol at −20° C. for 1 h and then washed with PBS. […] For quantification, the cells were incubated with 1 mL of […] buffer for 1 h to extract ARS, and the O.D. at 550 nm was recorded.

TACE = TACE activity assay in MSC lysates; assay type: cell-based, human; conditions: EpEX-stimulated MSCs
Method: FIG. 9. EpEX induces the phosphorylation and activity of TACE and γ-secretase. MSCs were stimulated by EpEX for the indicated times, and the activity of TACE and γ-secretase were detected. MSCs were stimulated by EpEX (3 μg/mL) for the indicated times. Western blot analysis was performed to detect the phosphorylation of TACE and Presenilin 2.
ADAM17 activity was measured using the InnoZyme ADAM17 activity kit (Calbiochem). In brief, cell lysates were harvested and loaded into a TACE antibody-coated plate. After 1 h incubation, the lysate was removed and the plate was washed twice. Substrate was added into each well for 5 h at 37° C. After incubation, the fluorescence signal of the reaction product was detected at excitation of 324 nm and emission of 405 nm. For the detection of γ-secretase activity, cell lysates were extracted and 500 μg protein was used. γ-secretase activity was detected by γ-secretase substrate (35 μM).

HMGA2 binding to the promoters of Oct4 and Sox2 [1]: can induce
B1: EpEX: extracellular domain of human EpCAM, 265 amino acids in length (SEQ ID NO: 2) (protein, listed as Homo sapiens)
chain: MAPPQVLAFGLLLAAATATFAAAQEECVCENYKLAVNCFVNNNRQCQCTSVGAQNTVICSKLAAKCLVMKAEMNGSKLGRRAKPEGALQNNDGLYDPDCDESGLFKAKQCNGTSMCWCVNTAGVRRTDKDTEITCSERVRTYWIIIELKHKAREKPYDSKSLRTALQKEITTRYQLDPKFITSILYENNVITIDLVQNSSQKTQNDVDIADVAYYFEKDVKGESLFHSKKMDLTVNGEQLDLDPGQTLIYYVDEKAPEFSMQGLK
phosphorylation of EGFR at Tyr845 (EGFR (Tyr845)): induced EGFR phosphorylation at Tyr845 in a time-dependent manner; also recorded: can induce
osteogenesis compared to controls (MSCs; EpEX treatment during osteo-induction, 14 days, ARS staining): 4 fold
calcium precipitation (ARS staining) (MSCs; EpEX, Day 14, vs non-treated controls): higher
activation of TACE (TACE): induced

Reference: patent publication US20260125649A1, “MEDIUM COMPOSITION AND METHOD FOR CULTURING MESENCHYMAL STEM CELLS” (ACADEMIA SINICA, priority 2018, published 2026)
